Data reported in PMC7699706, “Responses of DNA Mismatch Repair Proteins to a Stable G-Quadruplex Embedded into a DNA Duplex Structure” (International Journal of Molecular Sciences, 2020).

Substrate: Nc1ncnc2c1ncn2[C@@H]1O[C@H](COP(=O)(O)OP(=O)(O)OP(=O)(O)O)[C@@H](O)[C@H]1O
Assay: malachite green phosphate release assay, Michaelis-Menten fit
Assay type: biochemical, Escherichia coli
Conditions: no DNA, 5 mM MgCl2, 120 mM KCl, 10 mM HEPES-KOH pH 7.5, 37 °C, 250 nM MutS dimer
Excerpt: malachite green phosphate release assay, Michaelis-Menten fit on ecMutS

B1: ecMutS (Escherichia coli K-12) (protein)
chain: MSAIENFDAHTPMMQQYLRLKAQHPEILLFYRMGDFYELFYDDAKRASQLLDISLTKRGASAGEPIPMAGIPYHAVENYLAKLVNQGESVAICEQIGDPATSKGPVERKVVRIVTPGTISDEALLQERQDNLLAAIWQDSKGFGYATLDISSGRFRLSEPADRETMAAELQRTNPAELLYAEDFAEMSLIEGRRGLRRRPLWEFEIDTARQQLNLQFGTRDLVGFGVENAPRGLCAAGCLLQYAKDTQRTTLPHIRSITMEREQDSIIMDAATRRNLEITQNLAGGAENTLASVLDCTVTPMGSRMLKRWLHMPVRDTRVLLERQQTIGALQDFTAGLQPVLRQVGDLERILARLALRTARPRDLARMRHAFQQLPELRAQLETVDSAPVQALREKMGEFAELRDLLERAIIDTPPVLVRDGGVIASGYNEELDEWRALADGATDYLERLEVRERERTGLDTLKVGFNAVHGYYIQISRGQSHLAPINYMRRQTLKNAERYIIPELKEYEDKVLTSKGKALALEKQLYEELFDLLLPHLEALQQSASALAELDVLVNLAERAYTLNYTCPTFIDKPGIRITEGRHPVVEQVLNEPFIANPLNLSPQRRMLIITGPNMGGKSTYMRQTALIALMAYIGSYVPAQKVEIGPIDRIFTRVGAADDLASGRSTFMVEMTETANILHNATEYSLVLMDEIGRGTSTYDGLSLAWACAENLANKIKALTLFATHYFELTQLPEKMEGVANVHLDALEHGDTIAFMHSVQDGAASKSYGLAVAALAGVPKEVIKRARQKLRELESISPNAAATQVDGTQMSLLSVPEETSPAVEALENLDPDSLTPRQALEWIYRLKSLV
notes: recombinant, N-terminal His6 tag, expressed in E. coli BL21(DE3), Ni-NTA and size exclusion; homodimer
Question: For B1, which Km is on record?
Answer: 35 ± 15 µM

Question: What about the kcat of the same protein?
Answer: 0.117 ± 0.0167 s⁻¹
